Experimental data: patent US20170267738A1 (IMMATICS BIOTECHNOLOGIES, published 2017)

Target: MHC/MAG-003 complex on target cells (human)
Assay: cell-based or functional assay

EC50 (target peptide titration, IFN-γ release)	Binder
~10 nM	TCR R10P2G12 (TCR, V domains shown) V domain 1: AQKVTQAQTEISVVEKEDVTLDCVYETRDTTYYLFWYKQPPSGELVFLIRRNSFDEQNEISGRYSWNFQKSTSSFNFTITASQVVDSAVYFCALSEGNSGNTPLVFGKGTRLSVIA V domain 2: DVKVTQSSRYLVKRTGEKVFLECVQDMDHENMFWYRQDPGLGLRLIYFSYDVKMKEKGDIPEGYSVSREKKERFSLILESASTNQTSMYLCASSLSSGSHQETQYFGPGTRLLVLE
~10 nM	TCR R20P1H7 (TCR, V domains shown) V domain 1: EDQVTQSPEALRLQEGESSSLNCSYTVSGLRGLFWYRQDPGKGPEFLFTLYSAGEEKEKERLKATLTKKESFLHITAPKPEDSATYLCAVQGENSGYSTLTFGKGTMLLVSP V domain 2: EAQVTQNPRYLITVTGKKLTVTCSQNMNHEYMSWYRQDPGLGLRQIYYSMNVEVTDKGDVPEGYKVSRKEKRNFPLILESPSPNQTSLYFCASSLGPGLAAYNEQFFGPGTRLTVLE
